B1: entire unstructured N-terminal region (including the YG domain) of Arabidopsis thaliana PEX13, amino acids 1–193 (domain or fragment)
chain: MASQPAGGSPPKPWEKEGNTSGPNPFRPPSNTSTAGSVEASGTANPGEVVPPPVNRPNTAANMNSLSRPVPARPWEQQNYGSTMGGGYGSNLGMTSGYGSGTYGSALGGYGSSYGGGMYGGSSMYRGGYGGGGLYGSSGMYGGGAMGGYGGTMGGYGMGMGTGMGMGMGMGMGGPYGSQDPNDPFNQPPSPPGC
notes: PEX13 of Arabidopsis thaliana, GenBank NP_187412.1, amino acids 1-193; single engineered cysteine at the C terminus for covalent derivatization; In the permeation assay it stood as a hydrogel droplet formed at 40 mg/ml (2 mM); also called N-terminal fragment; full-length fragment; source: E. coli BL21 Rosetta 2(DE3), purified under denaturing conditions (Ni-NTA), tag removed with TEV protease; …

Legend:
[1] = biological target: the molecule itself; experiment: hydrogel formation (gelation); purified fragment concentrated to 40 mg/ml (2 mM) in 2 M urea, 50 mM HEPES-NaOH pH 8.0, 1 mM TCEP, 1 mM EDTA, left in silicone tubing at room temperature, squeezed out and photographed
[2] = biological target: B1; experiment: hydrogel permeation assay (confocal microscopy); droplets of the PEX13 1-193 hydrogel (40 mg/ml) in 25 mM HEPES-KOH pH 7.8, 130 mM KCl; GFP fusion proteins or GFP alone added at 500 nM; enrichment inside the gel over buffer after 30 min; settings: both partners purified

fold enrichment inside the gel over buffer [2] | Binder | binding result [1]
– | B1 | binds
~20 fold | full-length PEX5 fused to GFP (receptor, C-terminal GGSGGS linker and mEGFP left out) not shown | –
– | isolated YG domain of Arabidopsis thaliana PEX13, amino acids 76–193 (domain or fragment, PEX13 of Arabidopsis thaliana, GenBank NP_187412.1, amino acids 76-193 (YG domain); single engineered cysteine at the C terminus for covalent derivatization; also called YG domain alone; source: E. coli BL21 Rosetta 2(DE3), purified under denaturing conditions (Ni-NTA), tag removed with TEV protease; not shown: 14×His, N-terminal, cleaved) EQQNYGSTMGGGYGSNLGMTSGYGSGTYGSALGGYGSSYGGGMYGGSSMYRGGYGGGGLYGSSGMYGGGAMGGYGGTMGGYGMGMGTGMGMGMGMGMGGPYGSQDPNDPFNQPPSPPGC | binds
